The target of test [1] is FGFR3 (as measured by BIAcore, Table 1) (UniProt P22607). The test can be described thus: BIAcore. In general terms: SPR reads the build-up and loss of mass on a sensor chip optically.
Test [2] has the same target. The test can be described thus: BIAcore (receptor not given).
Test [3] concerns the target FGFR3-G394D expressed on B9 cells, P22607. The test can be described thus: cell-based or functional assay.

In general, Kd refers to a measure of binding affinity in units of concentration. Low values mean a tighter complex, high ones a looser complex. Usually koff stands for the rate constant with which the complex falls apart.

Sequence of FGFR3-G394D expressed on B9 cells, P22607 (P22607 23-806, stated change not applied): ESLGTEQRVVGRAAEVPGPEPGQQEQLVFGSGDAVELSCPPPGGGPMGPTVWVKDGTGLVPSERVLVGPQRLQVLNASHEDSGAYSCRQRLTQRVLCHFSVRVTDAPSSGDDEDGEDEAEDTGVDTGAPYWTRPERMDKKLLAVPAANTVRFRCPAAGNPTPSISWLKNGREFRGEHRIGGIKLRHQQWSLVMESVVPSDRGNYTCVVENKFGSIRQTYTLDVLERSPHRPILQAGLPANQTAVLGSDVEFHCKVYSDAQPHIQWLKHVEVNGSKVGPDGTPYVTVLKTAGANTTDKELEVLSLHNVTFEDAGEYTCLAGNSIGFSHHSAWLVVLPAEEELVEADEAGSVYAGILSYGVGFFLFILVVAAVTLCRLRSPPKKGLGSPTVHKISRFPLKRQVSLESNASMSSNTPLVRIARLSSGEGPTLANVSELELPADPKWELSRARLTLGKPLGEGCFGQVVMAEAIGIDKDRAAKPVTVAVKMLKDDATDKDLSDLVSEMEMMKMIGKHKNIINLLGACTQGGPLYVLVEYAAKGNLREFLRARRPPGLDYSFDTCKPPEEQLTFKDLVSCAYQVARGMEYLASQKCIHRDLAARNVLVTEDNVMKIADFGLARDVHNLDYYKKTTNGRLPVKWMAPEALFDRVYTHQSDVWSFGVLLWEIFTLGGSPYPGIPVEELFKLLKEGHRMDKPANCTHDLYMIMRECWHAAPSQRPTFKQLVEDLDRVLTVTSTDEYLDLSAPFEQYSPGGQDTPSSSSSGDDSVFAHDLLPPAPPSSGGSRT

B1: PRO-026 (Fab, V domains shown)
VH: QVQLVQSGAEVKKPGASVKVSCKASGYTFTSYYMHWVRQAPGQGLEWMGWINPNSGGTNYAQKFQGRVTMTRDTSISTAYMELSSLRSEDTAVYYCARGYWYAYFTYINYGYFDNWGQGTLVTVSS
VL: DIALTQPASVSGSPGQSITISCTGTSSDVGGYNYVSWYQQHPGKAPKLMIYDVSNRPSGVSNRFSGSKSGNTASLTISGLQAEDEADYYCQSYDNNSDVVFGGGTKLTVLG
For B1, in test [1], the equilibrium dissociation constant (Kd) turned out to be 4 nM. The molecule also registered a koff in test [2] of 0.0005 s⁻¹.

B2: PRO-055 (Fab, V domains shown)
VH: QVQLVQSGAEVKKPGASVKVSCKASGYTFTSYYMHWVRQAPGQGLEWMGWINPNSGGTNYAQKFQGRVTMTRDTSISTAYMELSSLRSEDTAVYYCARSMNSTMYWYLRRVLFDHWGQGTLVTVSS
VL: DIALTQPASVSGSPGQSITISCTGTSSDVGGYNYVSWYQQHPGKAPKLMIYDVSNRPSGVSNRFSGSKSGNTASLTISGLQAEDEADYYCQSYDMYNYIVFGGGTKLTVLG
In turn, B2 came in with a Kd in test [1] of 2.9 nM. This molecule also displayed an off-rate (koff) in test [2] of 0.00074 s⁻¹.

B3: PRO-002 (Fab, V domains shown)
VH: QVQLVQSGAEVKKPGASVKVSCKASGYTFTSYYMHWVRQAPGQGLEWMGWINPNSGGTNYAQKFQGRVTMTRDTSISTAYMELSSLRSEDTAVYYCARDFLGYEFDYWGQGTLVTVSS
VL: DIELTQPPSVSVAPGQTARISCSGDALGDKYASWYQQKPGQAPVLVIYDDSDRPSGIPERFSGSNSGNTATLTISGTQAEDEADYYCQSYDYSADYVFGGGTKLTVLG
In test [1], B3 returned a dissociation constant (Kd) of 37 nM. Also, the koff in test [2] was 0.02 s⁻¹.

B4: PRO-054 (Fab, V domains shown)
VH: QVQLVQSGAEVKKPGASVKVSCKASGYTFTSYYMHWVRQAPGQGLEWMGWINPNSGGTNYAQKFQGRVTMTRDTSISTAYMELSSLRSEDTAVYYCARNMAYTNYQYVNMPHFDYWGQGTLVTVSS
VL: DIELTQPPSVSVAPGQTARISCSGDALGDKYASWYQQKPGQAPVLVIYDDSDRPSGIPERFSGSNSGNTATLTISGTQAEDEADYYCQSYDYFKLVFGGGTKLTVLG
B4 returned a dissociation constant Kd in test [1] of 3.7 nM. For the same molecule, the koff in test [2] amounted to 0.002 s⁻¹.

B5: PRO-012 (Fab, V domains shown)
VH: QVQLKESGPALVKPTQTLTLTCTFSGFSLSTSGVGVGWIRQPPGKALEWLALIDWDDDKYYSTSLKTRLTISKDTSKNQVVLTMTNMDPVDTATYYCARYHSWYEMGYYGSTVGYMFDYWGQGTLVTVSS
VL: DIELTQPPSVSVAPGQTARISCSGDALGDKYASWYQQKPGQAPVLVIYDDSDRPSGIPERFSGSNSGNTATLTISGTQAEDEADYYCQSYDFDFAVFGGGTKLTVLG
B5: the dissociation constant Kd in test [1] was determined as 14 nM. The koff in test [2] came to 0.0023 s⁻¹.

B6: PRO-001 Fab (Fab, V domains shown)
VH: QVQLQQSGPGLVKPSQTLSLTCAISGDSVSSNSAAWNWIRQSPGRGLEWLGRTYYRSKWYNDYAVSVKSRITINPDTSKNQFSLQLNSVTPEDTAVYYCARSYYPDFDYWGQGTLVTVSS
VL: DIELTQPPSVSVAPGQTARISCSGDALGDKYASWYQQKPGQAPVLVIYDDSDRPSGIPERFSGSNSGNTATLTISGTQAEDEADYYCQSYDGPDLWVFGGGTKLTVLGQ
Take B6: the IC50 of FGF-stimulated growth of B9 cells expressing G394D-FGFR3 in test [3] amounted to 3 µg/mL.

B7: PRO-029 (Fab, V domains shown)
VH: QVQLVQSGAEVKKPGASVKVSCKASGYTFTSYYMHWVRQAPGQGLEWMGWINPNSGGTNYAQKFQGRVTMTRDTSISTAYMELSSLRSEDTAVYYCARTWQYSYFYYLDGGYYFDIWGQGTLVTVSS
VL: DIVLTQSPATLSLSPGERATLSCRASQSVSSSYLAWYQQKPGQAPRLLIYGASSRATGVPARFSGSGSGTDFTLTISSLEPEDFATYYCQQTNNAPVTFGQGTKVEIKR
With B7, the Kd in test [1] worked out at 6 nM. The off-rate constant (koff) in test [2] amounted to 0.0014 s⁻¹.
